Target: T1, MAP2c-1-467 with N-terminal histidine tag (H6-MAP2c) (rat, UniProt P15146-3 1-467, RED-tris-NTA fluorescent label on the histidine tag)
T1 sequence: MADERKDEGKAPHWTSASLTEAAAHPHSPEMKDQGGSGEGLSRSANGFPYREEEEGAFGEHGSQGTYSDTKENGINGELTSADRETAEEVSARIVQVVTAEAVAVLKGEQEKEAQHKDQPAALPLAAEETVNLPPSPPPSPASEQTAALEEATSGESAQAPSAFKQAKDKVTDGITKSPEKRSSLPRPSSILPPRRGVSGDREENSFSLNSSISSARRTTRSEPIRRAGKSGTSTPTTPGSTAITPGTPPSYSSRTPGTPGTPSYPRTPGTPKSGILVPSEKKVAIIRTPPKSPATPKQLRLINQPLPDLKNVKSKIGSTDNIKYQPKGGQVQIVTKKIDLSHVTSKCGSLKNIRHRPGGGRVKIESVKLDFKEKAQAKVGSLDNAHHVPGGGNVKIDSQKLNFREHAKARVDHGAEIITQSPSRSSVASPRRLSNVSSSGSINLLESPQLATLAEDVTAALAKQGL
Assay: MST

B1: SH3 domain of Fyn fused to hexahistidine tag (Fyn-SH3) (domain or fragment)
chain: not shown
  Kd: 22 ± 5 nM
